± gives the uncertainty stated by the source.
Test: self-splicing fitness, log relative to wild type (ln ratio); higher = more splicing; Tetrahymena group I intron in knt gene, E. coli kanamycin selection, DiMSum; sequences stand for … in CUCUCU…GGAGGGAAAAGUUAUCAGGCAUGCACCUGGUAGCUAGUCUUUAAACCAAUAGAUUGCAUCGGUUUAAAAGGCAAGACCGUCAAAUUGCGGGAAAGGGGUCAACAGCCGUUCAGUACCAAGUCUCAGGGGAAACUUUGAGAUGGCCUUGCAAAGGGUAUGGUAAUAAGCUGACGGACAUGGUCCUAACCACGCAGCCAAGUCCUAAGUCAACAGAUCUUCUGUUGAUAUGGAUGCAGUUCACAGACUAAAUGUCGGUCGGGGAAGAUGUAUUCUUCUCAUAAGAUAUAGUCGGACCUCUCCUUAAUGGGAGCUAGCGGAUGAAGUGAUGCAACACUGGAGCCGCUGGGAACUAAUUUGUAUGCGAAAGUAUAUUGAUUAGUUUUGGAGUACUCGUGGUCG
Method in brief: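 A randomised library covering all eight P1ex-region intron nucleotides was built with the intron in the knt kanamycin-resistance gene on pET-22b(+) and held in E. coli BL21(DE3). Cells were grown overnight at 37°C or 30°C on LB agar, with or without 25 μg/mL kanamycin, plus 100 μg/mL carbenicillin, 50 μM IPTG and 0.2% rhamnose, and pooled colonies were amplicon-sequenced on an Illumina HiSeq 2500. DiMSum fitness is the error-weighted combination of wild-type-normalised replicate fold changes, kanamycin versus none.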

Row | Sequence | self-splicing fitness (ln) (37 °C) | self-splicing fitness (ln) (30 °C)
1 | AGAGAGCAAUAUUACGUAGG | -2.16 ± 0.43 | 
2 | AGAGAGCAAUAUUACGUGGG | -2.71 ± 0.28 | -3.01 ± 0.17
3 | AGAGAGCAAUAUUACGUGUG | -3.07 ± 0.24 | -3.84 ± 0.16
4 | AGAGAGCAAUAUUACGUUGG | -2.76 ± 0.18 | -3.15 ± 0.14
5 | AGAUAGCAAUAUUACGAACU | 0.533 ± 0.17 | -0.83 ± 0.16
6 | AGAUAGCAAUAUUACGACAC | -0.486 ± 0.15 | -1.11 ± 0.12
7 | AGAUAGCAAUAUUACGACUA | -0.165 ± 0.13 | -1.03 ± 0.14
8 | AGAUAGCAAUAUUACGAGAU | -1.69 ± 0.27 | -3.02 ± 0.25
9 | AGAUAGCAAUAUUACGAUGA | -0.349 ± 0.097 | -1.5 ± 0.13
10 | AGAUAGCAAUAUUACGCACU | -0.664 ± 0.14 | -1.22 ± 0.1
11 | AGAUAGCAAUAUUACGCAGA | -2.32 ± 0.2 | -2.95 ± 0.18
12 | AGAUAGCAAUAUUACGCGGA | -0.482 ± 0.093 | -2.98 ± 0.13
13 | AGAUAGCAAUAUUACGCGUU | -0.0669 ± 0.13 | -2.34 ± 0.14
14 | AGAUAGCAAUAUUACGCUAU | -3.47 ± 0.24 | -3.58 ± 0.4
15 | AGAUAGCAAUAUUACGGAGA | -2.76 ± 0.38 | -1.91 ± 0.18
16 | AGAUAGCAAUAUUACGGAGC | -1.5 ± 0.28 | -3.24 ± 0.29
17 | AGAUAGCAAUAUUACGGCCA | -0.323 ± 0.26 | 0.117 ± 0.33
18 | AGAUAGCAAUAUUACGGGCC | -2.68 ± 0.36 | -1.68 ± 0.19
19 | AGAUAGCAAUAUUACGGUAA | -1.34 ± 0.19 | -1.79 ± 0.2
20 | AGAUAGCAAUAUUACGGUAC | -2.42 ± 0.22 | -3.91 ± 0.28
21 | AGAUAGCAAUAUUACGGUCU | -2.8 ± 0.22 | -2 ± 0.17
22 | AGAUAGCAAUAUUACGUAUC | -1.71 ± 0.18 | -2.64 ± 0.17
23 | AGAUAGCAAUAUUACGUCCG | -0.122 ± 0.11 | 0.235 ± 0.1
24 | AGAUAGCAAUAUUACGUGUC | -3.11 ± 0.27 | -3.36 ± 0.28
25 | AGAUAGCAAUAUUACGUUAA | -2.01 ± 0.18 | -2.88 ± 0.18
26 | AGCAAGCAAUAUUACGAGUC | -1.84 ± 0.14 | -3.5 ± 0.16

Row | Sequence | self-splicing fitness (ln) (37 °C) | self-splicing fitness (ln) (30 °C)
27 | AGCAAGCAAUAUUACGAUAA | 0.308 ± 0.11 | -2.16 ± 0.12
28 | AGCAAGCAAUAUUACGAUCC | 1.31 ± 0.25 | -1.8 ± 0.18
29 | AGCAAGCAAUAUUACGCACA | 0.365 ± 0.12 | -0.316 ± 0.082
30 | AGCAAGCAAUAUUACGCAGC | -2.1 ± 0.35 | -2.98 ± 0.27
31 | AGCAAGCAAUAUUACGCAUA | -1.06 ± 0.15 | -1.96 ± 0.14
32 | AGCAAGCAAUAUUACGCGAC | -2.35 ± 0.26 | -2.95 ± 0.25
33 | AGCAAGCAAUAUUACGCGAU | -0.149 ± 0.18 | -3.51 ± 0.37
34 | AGCAAGCAAUAUUACGGACG | -0.244 ± 0.086 | -0.404 ± 0.061
35 | AGCAAGCAAUAUUACGGAUG | -2.17 ± 0.17 | -2.27 ± 0.14
36 | AGCAAGCAAUAUUACGGCUC | -3.41 ± 0.4 | -4.6 ± 0.27
37 | AGCAAGCAAUAUUACGGUCA | 0.00074 ± 0.084 | -0.46 ± 0.07
38 | AGCAAGCAAUAUUACGGUCC | -0.276 ± 0.081 | -0.25 ± 0.07
39 | AGCAAGCAAUAUUACGUAGG | -2.1 ± 0.12 | -2.75 ± 0.1
40 | AGCAAGCAAUAUUACGUCCG | -0.462 ± 0.14 | -0.909 ± 0.12
41 | AGCAAGCAAUAUUACGUUAA | -1.68 ± 0.1 | -3.3 ± 0.17
42 | AGCAAGCAAUAUUACGUUAC | -2.38 ± 0.21 | -3.47 ± 0.23
43 | AGCAAGCAAUAUUACGUUAG | -2.24 ± 0.22 | -2.96 ± 0.17
44 | AGCAAGCAAUAUUACGUUGG | -3.18 ± 0.17 | -4.16 ± 0.14
45 | AGCCAGCAAUAUUACGAAGA | -1.46 ± 0.2 | -1.84 ± 0.26
46 | AGCCAGCAAUAUUACGACCA | -2.81 ± 0.3 | -1.61 ± 0.14
47 | AGCCAGCAAUAUUACGAGGA | -2.17 ± 0.27 | -3.35 ± 0.34
48 | AGCCAGCAAUAUUACGAGGU | -1.93 ± 0.21 | -3.51 ± 0.23
49 | AGCCAGCAAUAUUACGAUCC | -1.02 ± 0.19 | -2.27 ± 0.15
50 | AGCCAGCAAUAUUACGCCCG | -1.61 ± 0.36 | -1.94 ± 0.47
51 | AGCCAGCAAUAUUACGCGAA | -2.79 ± 0.38 | -0.797 ± 0.26
52 | AGCCAGCAAUAUUACGCGCU | -2.15 ± 0.25 | -3.07 ± 0.24

Row | Sequence | self-splicing fitness (ln) (37 °C) | self-splicing fitness (ln) (30 °C)
53 | AGCCAGCAAUAUUACGCUCG | -1.58 ± 0.18 | -1.78 ± 0.18
54 | AGCCAGCAAUAUUACGCUUA | -1.4 ± 0.093 | -2.09 ± 0.11
55 | AGCCAGCAAUAUUACGCUUU | -0.852 ± 0.086 | -2.84 ± 0.089
56 | AGCCAGCAAUAUUACGGCCC | -0.0646 ± 0.48 | 
57 | AGCCAGCAAUAUUACGGCGC | -0.844 ± 0.16 | -1.51 ± 0.13
58 | AGCCAGCAAUAUUACGGUCG | -0.328 ± 0.092 | -0.387 ± 0.078
59 | AGCCAGCAAUAUUACGUAAU | -0.608 ± 0.12 | -1.71 ± 0.11
60 | AGCCAGCAAUAUUACGUACU | 0.219 ± 0.086 | -0.0754 ± 0.072
61 | AGCCAGCAAUAUUACGUAGA | -1.84 ± 0.15 | -2.62 ± 0.1
62 | AGCCAGCAAUAUUACGUCGA | -2.88 ± 0.18 | -3.17 ± 0.17
63 | AGCCAGCAAUAUUACGUGCA | 0.0293 ± 0.087 | -0.689 ± 0.068
64 | AGCCAGCAAUAUUACGUUAA | -2.59 ± 0.2 | -2.44 ± 0.17
65 | AGCCAGCAAUAUUACGUUGA | -2.04 ± 0.16 | -3.31 ± 0.13
66 | AGCCAGCAAUAUUACGUUUU | -2.06 ± 0.11 | -3.78 ± 0.14
67 | AGCGAGCAAUAUUACGACCG | -1.84 ± 0.32 | -1.98 ± 0.23
68 | AGCGAGCAAUAUUACGACGC | 0.245 ± 0.2 | -1.92 ± 0.25
69 | AGCGAGCAAUAUUACGAGGA | -2.6 ± 0.22 | -2.36 ± 0.15
70 | AGCGAGCAAUAUUACGAGUU | -1.21 ± 0.18 | -2.61 ± 0.19
71 | AGCGAGCAAUAUUACGAUGU | -1.46 ± 0.18 | -2.99 ± 0.19
72 | AGCGAGCAAUAUUACGCUGG | -3.38 ± 0.42 | -3.39 ± 0.28
73 | AGCGAGCAAUAUUACGGCAA | -1.71 ± 0.15 | -1.93 ± 0.13
74 | AGCGAGCAAUAUUACGGCCU | -0.258 ± 0.19 | -0.967 ± 0.17
75 | AGCGAGCAAUAUUACGGCGA | -0.377 ± 0.27 | -0.915 ± 0.22
76 | AGCGAGCAAUAUUACGGGCG | -0.431 ± 0.099 | -1.23 ± 0.08
